Results reported in patent publication US6960454B2, “Methods for making and using a thermophilic enzyme as a β-glycosidase” (Director-General of Agency of Industrial Science and …, priority 1998, dated 2005).
Where two headings read alike, the source gives them in different places.

How the values were obtained:
[1] = biological target: T1, Sβ-gly from S. solfataricus strain MT-4 (Saccharolobus solfataricus, UniProt P22498); settings: cited from earlier work; for Km / kcat: Sβ-gly, 75° C. and pH 6.5; for efficiency of hydrolysis by Sβ-gly: in words
T1 sequence (P22498 whole entry N62M/R140P/N205M/N208M/A235H/V319M/K445F/G469C): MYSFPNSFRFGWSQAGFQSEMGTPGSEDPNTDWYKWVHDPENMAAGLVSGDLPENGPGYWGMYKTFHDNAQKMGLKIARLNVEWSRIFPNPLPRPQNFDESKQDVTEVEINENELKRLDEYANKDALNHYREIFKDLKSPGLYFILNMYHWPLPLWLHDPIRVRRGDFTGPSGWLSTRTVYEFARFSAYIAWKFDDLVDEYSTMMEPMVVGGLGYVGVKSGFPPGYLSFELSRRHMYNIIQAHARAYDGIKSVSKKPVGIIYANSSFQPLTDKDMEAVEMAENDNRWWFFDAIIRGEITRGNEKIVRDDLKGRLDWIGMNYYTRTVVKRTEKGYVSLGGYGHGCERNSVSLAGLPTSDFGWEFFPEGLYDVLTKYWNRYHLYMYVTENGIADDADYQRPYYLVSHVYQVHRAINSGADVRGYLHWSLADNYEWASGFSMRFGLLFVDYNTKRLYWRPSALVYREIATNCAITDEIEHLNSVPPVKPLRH

[2] = biological target: his-tagged BGPh from P. horikoshii (His-BGPh) (Pyrococcus horikoshii, UniProt O58104); format: biochemical; settings: for kcat: His-BGPh, 90° C. and pH 6.0; for efficiency of hydrolysis by His-BGPh: in words
Method: (§1) The enzyme reactions were carried out at 90° C. in a solution […] containing the substrate and the purified His-BGPh in 50 mM phosphate buffer (pH 6) with 0.1% Triton X-100 and 0.3 M NaCl. For the hydrolysis of p-nitrophenyl (p-Nph) β-D-saccharides, the reaction was terminated by the addition of 1 M Na2CO3 (1 ml), then centrifuged at 15,000×g for 10 min. The concentration of the p-Nph group in the supernatant was quantified by measuring the absorbance at 400 nm. For the hydrolysis of β-D-glucoside, the released glucose was analyzed with a Glucose C-II Test kit (Wako Pure Chemicals, Japan). Initial velocities were obtained directly from the initial slopes of the time course plots. The Km and kcat values were calculated using the Michaelis-Menten equation and the least squares method (12). The subsite affinity for a long alkyl chain was determined using the method reported previously (13-15) on the basis of the subsite theory (16).

[3] = biological target: T1, Sβ-gly from S. solfataricus strain MT-4; assay: Kinetic parameters of substrate hydrolysis by Sβ-gly (from references 7, 21); format: biochemical, Sulfolobus solfataricus
Optimum temperature = format: biochemical; settings: p-Nph-β-D-Glcp; listed as purified enzyme
Method: The enzyme reactions were carried out in duplicate at temperatures ranging from 50° C. to 100° C. for 30 min. Optical density measurements at A405 were performed as described for the enzyme assays.

Optimum pH = format: biochemical; settings: p-Nph-β-D-Glcp, 90° C.
Method: The pH of the reaction mixtures ranged from 3.9 to 5.5 in sodium acetate buffer and from 5.5 to 7.99 in phosphate buffer. Optical density measurements at A405 were performed as described for the enzyme assays.

[4] = Heat treatment of the purified enzyme at 95° C.; format: physicochemical; settings: 50 mM phosphate buffer (pH 6.0), 250 mM NaCl, 95° C. for 1 hour
Method: When the enzyme is treated in 50 mM phosphate buffer (pH 6.0) containing 250 mM NaCl at 95° C. for 1 hour, its activity is retained at the level of 80% based on the initial level. The enzyme has an optimum pH of pH 6.0 and an optimum temperature of 100° C. or higher in terms of the enzymatic activity.

[5] = Subsite affinity of BGPh for a long alkyl chain; format: biochemical; settings: from kcat/Km of n-Dodecyl- vs Methyl-β-D-Glcp
Method: as §1

[6] = substrate: OCc1ccccc1O[C@@H]1O[C@H](CO)[C@@H](O)[C@H](O)[C@H]1O; assay: purified protein, by the assay type; settings: other: His-BGPh, 90° C. and pH 6.0
[7] = substrate: CCCCCCCCCCCCO[C@@H]1O[C@H](CO)[C@@H](O)[C@H](O)[C@H]1O; assay: purified protein, by the assay type; format: biochemical; settings: other: His-BGPh, 90° C. and pH 6.0
Method: (§2) The enzyme reactions were carried out at 90° C. in a solution (200 ml) containing the substrate and the purified His-BGPh in 50 mM phosphate buffer (pH 6) with 0.1% Triton X-100 and 0.3 M NaCl. For the hydrolysis of p-nitrophenyl (p-Nph) β-D-saccharides, the reaction was terminated by the addition of 1 M Na2CO3 (1 ml), then centrifuged at 15,000×g for 10 min. The concentration of the p-Nph group in the supernatant was quantified by measuring the absorbance at 400 nm. For the hydrolysis of β-D-glucoside, the released glucose was analyzed with a Glucose C-II Test kit (Wako Pure Chemicals, Japan). Initial velocities were obtained directly from the initial slopes of the time course plots. The Km and kcat values were calculated using the Michaelis-Menten equation and the least squares method (12). The subsite affinity for a long alkyl chain was determined using the method reported previously (13-15) on the basis of the subsite theory (16).

[8] = substrate: CCCCCCCCCCCO[C@@H]1O[C@H](CO)[C@@H](O)[C@H](O)[C@H]1O; assay: purified protein, by the assay type; format: biochemical; settings: other: His-BGPh, 90° C. and pH 6.0
Method: as §2

[9] = substrate: CCCCCCCCCCO[C@@H]1O[C@H](CO)[C@@H](O)[C@H](O)[C@H]1O; assay: purified protein, by the assay type; format: biochemical; settings: other: His-BGPh, 90° C. and pH 6.0
Method: as §2

[10] = substrate: CCCCCCCCCO[C@@H]1O[C@H](CO)[C@@H](O)[C@H](O)[C@H]1O; assay: purified protein, by the assay type; format: biochemical; settings: other: His-BGPh, 90° C. and pH 6.0
Method: as §2

[11] = substrate: CCCCCCCCO[C@@H]1O[C@H](CO)[C@@H](O)[C@H](O)[C@H]1O; assay: purified protein, by the assay type; format: biochemical; settings: other: His-BGPh, 90° C. and pH 6.0
Method: as §2

[12] = substrate: CCCCCCO[C@@H]1O[C@H](CO)[C@@H](O)[C@H](O)[C@H]1O; assay: purified protein, by the assay type; format: biochemical; settings: other: His-BGPh, 90° C. and pH 6.0
Method: as §2

[13] = substrate: CCCCCO[C@@H]1O[C@H](CO)[C@@H](O)[C@H](O)[C@H]1O; assay: purified protein, by the assay type; format: biochemical; settings: other: His-BGPh, 90° C. and pH 6.0
Method: as §2

[14] = substrate: CO[C@@H]1O[C@H](CO)[C@@H](O)[C@H](O)[C@H]1O; assay: purified protein, by the assay type; format: biochemical; settings: other: His-BGPh, 90° C. and pH 6.0
Method: as §2

[15] = substrate: O=[N+]([O-])c1ccc(O[C@@H]2OC[C@@H](O)[C@H](O)[C@H]2O)cc1; assay: purified protein, by the assay type; format: biochemical; settings: other: His-BGPh, 90° C. and pH 6.0
Method: as §2

[16] = substrate: O=[N+]([O-])c1ccc(O[C@@H]2O[C@H](CO)[C@@H](O)[C@H](O)[C@@H]2O)cc1; assay: purified protein, by the assay type; format: biochemical; settings: other: His-BGPh, 90° C. and pH 6.0
Method: as §2

[17] = substrate: O=[N+]([O-])c1ccc(O[C@@H]2O[C@H](CO)[C@@H](O)[C@H](O)[C@H]2O)cc1; assay: purified protein, by the assay type; format: biochemical; settings: other: His-BGPh, 90° C. and pH 6.0
Method: as §2

[18] = substrate: O=[N+]([O-])c1ccc(O[C@@H]2O[C@H](CO)[C@H](O)[C@H](O)[C@H]2O)cc1; assay: purified protein, by the assay type; format: biochemical; settings: other: His-BGPh, 90° C. and pH 6.0
Method: as §2

O=[N+]([O-])c1ccc(O[C@@H]2O[C@H](CO)[C@H](O)[C@H](O)[C@H]2O)cc1 [p-Nph-β-D-Galp]
Km [1]: 4.7 mM
kcat [1]: 1020 s⁻¹

CCCCCO[C@@H]1O[C@H](CO)[C@@H](O)[C@H](O)[C@H]1O [n-Amyl-β-D-Glcp]
Km [1]: 1.1 mM
kcat [1]: 256 s⁻¹

O=[N+]([O-])c1ccc(O[C@@H]2OC[C@@H](O)[C@H](O)[C@H]2O)cc1 [p-Nph-β-D-Xylp]
Km [1]: 4 mM
kcat [1]: 284 s⁻¹

CCCCCCO[C@@H]1O[C@H](CO)[C@@H](O)[C@H](O)[C@H]1O [n-Hexyl-β-D-Glcp]
Km [1]: 1 mM
kcat [1]: 263 s⁻¹

O=[N+]([O-])c1ccc(O[C@@H]2O[C@H](CO)[C@@H](O)[C@H](O)[C@H]2O)cc1 [p-Nph-β-D-Glcp, p-nitrophenyl β-D-glucopyranoside]
Km [1]: 0.5 mM
kcat [1]: 542 s⁻¹

OC[C@H]1O[C@@H](O[C@H]2[C@H](O)[C@@H](CO)OC(O)[C@@H]2O)[C@H](O)[C@@H](O)[C@@H]1O (some centres unmarked) [Laminaribiose]
kcat [2]: 184 s⁻¹
Km [1]: 1 mM
kcat [1]: 908 s⁻¹

OC[C@H]1O[C@@H](O[C@H]2[C@H](O)[C@@H](O)[C@H](O[C@H]3[C@H](O)[C@@H](O)[C@H](O[C@H]4[C@H](O)[C@@H](O)C(O)O[C@@H]4CO)O[C@@H]3CO)O[C@@H]2CO)[C@H](O)[C@@H](O)[C@@H]1O (some centres unmarked) [Cellotetraose]
efficiency of hydrolysis by His-BGPh [2]: low efficiency
kcat [1]: 584 s⁻¹
Km ([1]; read-out: Km): 1.7 mM
efficiency of hydrolysis by Sβ-gly [1]: high efficiency

Cellobiose
kcat [2]: 194 s⁻¹
Km [1]: 30 mM
kcat [1]: 1333 s⁻¹

OCc1ccccc1O[C@@H]1O[C@H](CO)[C@@H](O)[C@H](O)[C@H]1O [Salicin]
Km [1]: 5 mM
kcat [1]: 880 s⁻¹

CCCCCCCCO[C@@H]1O[C@H](CO)[C@@H](O)[C@H](O)[C@H]1O [n-Octyl-β-D-Glcp]
kcat/Km relative to that for laminaribiose [3]: 0.48 fold
kcat/Km relative to that for p-Nph-β-D-Glcp [3]: 0.4 fold
Km [1]: 0.7 mM
kcat [1]: 313 s⁻¹

OC[C@H]1O[C@@H](OC[C@H]2O[C@@H](O)[C@H](O)[C@@H](O)[C@@H]2O)[C@H](O)[C@@H](O)[C@@H]1O [β-Gentiobiose]
kcat [1]: 1360 s⁻¹
Km ([1]; read-out: Km): 100 mM

OC[C@H]1O[C@@H](O[C@H]2[C@H](O)[C@@H](O)[C@H](O[C@H]3[C@H](O)[C@@H](O)C(O)O[C@@H]3CO)O[C@@H]2CO)[C@H](O)[C@@H](O)[C@@H]1O (some centres unmarked) [Cellotriose]
efficiency of hydrolysis by His-BGPh [2]: low efficiency
kcat [1]: 197 s⁻¹
Km ([1]; read-out: Km): 3 mM
efficiency of hydrolysis by Sβ-gly [1]: high efficiency

B1: his-tagged BGPh from P. horikoshii (His-BGPh) (Pyrococcus horikoshii OT3) (protein)
chain: MPLKFPEMFLFGTATSSHQIEGNNRWNDWWYYEQIGKLPYRSGKACNHWELYRDDIQLMTSLGYNAYRFSIEWSRLFPEENKFNEDAFMKYREIIDLLLTRGITPLVTLHHFTSPLWFMKKGGFLREENLKHWEKYIEKVAELLEKVKLVATFNEPMVYVMMGYLTAYWPPFIRSPFKAFKVAANLLKAHAIAYELLHGKFKVGIVKNIPIILPASDKERDRKAAEKADNLFNWHFLDAIWSGKYRGVFKTYRIPQSDADFIGVNYYTASEVRHTWNPLKFFFEVKLADISERKTQMGWSVYPKGIYMALKKASRYGRPLYITENGIATLDDEWRVEFIIQHLQYVHKAIEDGLDVRGYFYWSFMDNYEWKEGFGPRFGLVEVDYQTFERRPRKSAYVYGEIARSKEIKDELLKRYGLPELQL
optimum temperature (Optimum temperature): ≥ 100 °C
optimum pH (Optimum pH): 6.0
activity retained based on the initial level [4]: 80%
subsite affinity A(C11) to bind a long alkyl chain (C11) [5]: 4.26 kcal/mol
Km [6]: 1.96 mM
kcat [6]: 44 s⁻¹
kcat/Km [6]: 22.20 mM⁻¹ s⁻¹
Km [7]: 30 µM
kcat [7]: 36 s⁻¹
kcat/Km [7]: 1152.90 mM⁻¹ s⁻¹
Km [8]: 0.05 mM
kcat [8]: 43 s⁻¹
kcat/Km [8]: 944.37 mM⁻¹ s⁻¹
Km [9]: 0.08 mM
kcat [9]: 37 s⁻¹
kcat/Km [9]: 469.62 mM⁻¹ s⁻¹
Km [10]: 0.08 mM
kcat [10]: 39 s⁻¹
kcat/Km [10]: 471.57 mM⁻¹ s⁻¹
Km [11]: 0.20 mM
kcat [11]: 34 s⁻¹
kcat/Km [11]: 170.70 mM⁻¹ s⁻¹
Km [12]: 0.54 mM
kcat [12]: 33 s⁻¹
kcat/Km [12]: 60.28 mM⁻¹ s⁻¹
Km [13]: 2.02 mM
kcat [13]: 31 s⁻¹
kcat/Km [13]: 15.11 mM⁻¹ s⁻¹
Km [14]: 40.74 mM
kcat [14]: 35 s⁻¹
kcat/Km [14]: 0.85 mM⁻¹ s⁻¹
Km [15]: 0.10 mM
kcat [15]: 3 s⁻¹
kcat/Km [15]: 31.83 mM⁻¹ s⁻¹
kcat [16]: 2 s⁻¹
kcat/Km [16]: 14.60 mM⁻¹ s⁻¹
Km [17]: 0.35 mM
kcat [17]: 79 s⁻¹
kcat/Km [17]: 225.67 mM⁻¹ s⁻¹
Km [18]: 1.30 mM
kcat [18]: 123 s⁻¹
kcat/Km [18]: 94.34 mM⁻¹ s⁻¹
